Measurements from US10105454B2, “Ultrashort peptides as exogenous second harmonic probes for bioimaging applications” (Agency for Science, Technology and Research, priority 2014, dated 2018).
“And” between values parts separate entries of the source, which are not always exact repeats. Identical values can stand only once. No end group written: not given here.

Tests used:
[1] = SHG imaging and spectral analysis of peptide particles; format: physicochemical
Source text: (§1) We acquired SHG images using a commercial laser scanning microscopic imaging system (Zeiss LSM 510 META, Jena, Germany) coupled to a mode-locked femtosecond Ti: sapphire laser (Mai-Tai broadband, Spectra-Physics), tunable from 710 nm to 990 nm. To achieve spectral analysis and detect the SHG signal, we used the META detector with 32-gated photon counting module.
To test whether the amyloid-like peptides of the present invention are SHG-active, we first investigated a hexamer peptide, Ac-LIVAGK-NH2, (LK6) (SEQ ID NO: 27). Peptide particles deposited on a glass microscope slide were examined under an SHG imaging system. Instrument details can be found in our previous work. During the whole experiments, only the backscattered geometry was employed because it is the only suitable configuration for in vivo imaging. We chose collagen I as a control. For more than a decade it has been shown that SHG microscopy can visualize supramolecular assembly of collagen in tissues. […] The fine structures of collagen and peptide particles can be clearly seen under SHG and scanning electron microscopy (SEM, FIG. 1a insert, 1b and 1c).
We further characterized LK6 peptide. […] When excited at 810 nm, LK6 emitted a sharp SHG peak at 405 nm (FIG. 2a). We then examined the excitation wavelength tunability of SHG signals from LK6 peptide. In FIG. 2b, as the excitation wavelength was increased from 810 to 890 nm, the wavelength of the SHG signals from the LK6 peptide particles increased from 405 to 445 nm respectively. Biological samples, such as cells and tissues, are known to have auto-fluorescence. With excitation wavelength tunability, we can better avoid auto-fluorescence. In addition, we can further increase penetration depth in tissues by simply increasing excitation wavelength. […] The band width (full width at half-maximum of Gaussian distribution, FWHM) was narrow (˜10 nm) and it obeys a relationship to the corresponding wavelength profile of the fundamental beam (˜15 nm). Moreover, we measured the dependence of the output signal on irradiation intensity by varying the 850 nm excitation intensity. […] (1)

[2] = system: HeLa cells; assay: MTS cytotoxicity test, HeLa cells; format: cell-based, human; details: 48 h, 0.1 to 1000 μg/mL
Experimental: (§2) In order to use LK6 for bioimaging applications, such as monitoring cells and in vivo imaging, we assessed the cytotoxicity of LK6 by the MTS test. The MTS test was applied to two human cell lines, HeLa and primary human dermal fibroblasts (HDF). The toxicity of LK6 was measured at 0.1, 1, 10, 100 and 1000 μg/mL. Cells were exposed to cell culture media containing LK6 solution for 48 h. […] Calcein AM can penetrate cell membrane and be converted to cell membrane impermeable green fluorescent calcein, while red fluorescent EthD-1 is excluded by the intact cell membrane of live cells.
(§3) We cultured both HeLa and human dermal fibroblasts in DMEM supplemented with 10% fetal bovine serum and 1% penicillin/streptomycin (Life technologies, Singapore).
(§4) In order to use LK6 for bioimaging applications, such as in vitro monitoring cells and in vivo imaging the whole animal, we assessed the cytotoxicity of LK6 by the MTS test and live/dead assay with two human cell lines, human epithelial carcinoma cells (HeLa) and primary human dermal fibroblasts (HDF).

[3] = system: primary human dermal fibroblasts (HDF); assay: MTS cytotoxicity test, human dermal fibroblasts; format: cell-based; details: 48 h, 0.1 to 1000 μg/mL
Experimental: as §2, §3, §4

[4] = system: primary human dermal fibroblasts (HDF); assay: Calcein AM/EthD-1 live/dead staining, HDF cells; format: cell-based; details: 48 h, 1 and 1000 μg/mL
Experimental: (§5) (b) Cytotoxicity determined by Calcein AM/EthD-1 (live/dead, green/red) staining method after 48 h treated with 1 and 1000 μg/mL LK6 peptide solutions using non-treated cells as control.
as §2, §4

[5] = Powder SHG efficiency (Kurtz and Perry powder technique, sucrose standard); format: physicochemical; details: relative to sucrose; average ± standard deviation
Source text: as §1
All these peptides are SHG-active. We used a powder technique developed by Kurtz and Perry to evaluate the SHG efficiency of these second-order nonlinear optical materials. Sucrose, having a relatively modest nonlinearity, was chosen as a standard to evaluate second harmonic generation efficiencies. […] The efficiency of LD6 and IK3 were even three times higher than that of sucrose. These may due to their molecular structures. LD6 is known to form hydrogel at much lower concentrations compared to LK6. The trimer IK3 has larger dipole moment compared to LK6. […] This agrees with the previous findings. In Table 1, all the tested amyloid-like peptides were SHG-active with some showing even higher SHG efficiency than collagen subtypes. This provides a broad spectrum of materials as second harmonic probes.

[6] = at 12 mM, ref [18]; cited from earlier work
[7] = system: HeLa cells; assay: Calcein AM/EthD-1 live/dead staining, HeLa cells; format: cell-based, human; details: 48 h, 1 and 1000 μg/mL
Experimental: as §5, §2, §4

[8] = Hyper Rayleigh Scattering, ref [19]; cited from earlier work

With Ac-LIVAGK-NH2 [LK6, Ac-LIVAGK-NH2] the “SHG peak emission wavelength” value ([1]; excitation 810 nm) was 405 nm, the “SHG band width (FWHM of Gaussian distribution)” value ([1]; excitation 850 nm) was ~10 nm and the “SHG emission maximum (Gaussian fit)” value ([1]; excitation 850 nm) was 425 nm. The SHG signal wavelength ([1]; excitation 890 nm) was 445 nm and 450 nm, the “Cell viability (MTS)” value [2] was “either equivalent to or even higher than that of untreated cells” and the “Cell viability (MTS)” value [3] was “either equivalent to or even higher than that of untreated cells”. The “Cytotoxicity by live/dead staining” value [4] was “no toxicity”, the “Powder SHG efficiency I^2ω/I^2ω(sucrose)” value [5] was 0.95 ± 0.19 and the Hydrogel formation [6] was “self-assembled into hydrogels”. The “Cytotoxicity by live/dead staining” value [7] was “no toxicity”.

In the case of GGVVIA (listed as Homo sapiens) [GA6], the “Powder SHG efficiency I^2ω/I^2ω(sucrose)” value [5] is given as 1.52 ± 0.43 and the Hydrogel formation [6] is given as “self-assembled into hydrogels”.

In the case of “ILVAGS (Ac-ILVAGS) [IS6, designed synthetic hexamer, neutral, acetylated at the N terminus]”, the “Powder SHG efficiency I^2ω/I^2ω(sucrose)” value [5] is listed as 1.96 ± 0.58 and the Hydrogel formation [6] is listed as “self-assembled into hydrogels”.

For IVK [IK3], the “Powder SHG efficiency I^2ω/I^2ω(sucrose)” value [5] is given as 3.31 ± 0.57 and the Hydrogel formation [6] is given as “self-assembled into hydrogels”.

In the case of “LIVAGD (Ac-LIVAGD) [LD6, designed synthetic hexamer, negatively charged, acetylated at the N terminus]”, the “Powder SHG efficiency I^2ω/I^2ω(sucrose)” value [5] is listed as 3.06 ± 0.65 and the Hydrogel formation [6] is listed as “self-assembled into hydrogels”.

For Type II: human collagen subtype II, the “Powder SHG efficiency I^2ω/I^2ω(sucrose)” value [5] was 0.41 ± 0.13.

For PPG, the “First hyperpolarizability β” value [8] is given as “about 0.087 ×10-30 esu”.

In the case of “Type I: human collagen subtype I, control and endogenous SHG probe”, the “First hyperpolarizability β” value [8] is given as 1250±20 ×10-30 esu and the “Powder SHG efficiency I^2ω/I^2ω(sucrose)” value [5] is given as 1.23 ± 0.36.

In the case of DFNKF (listed as Homo sapiens) [DF5], the “Powder SHG efficiency I^2ω/I^2ω(sucrose)” value [5] is given as 0.89 ± 0.33 and the Hydrogel formation [6] is given as “self-assembled into hydrogels”.

In the case of GGG, the “First hyperpolarizability β” value [8] is listed as “about 0.087 ×10-30 esu”.

For NFGAIL (listed as Homo sapiens) [NL6], the “Powder SHG efficiency I^2ω/I^2ω(sucrose)” value [5] is given as 0.76 ± 0.21 and the Hydrogel formation [6] is given as “self-assembled into hydrogels”.

In the case of KLVFFAE (listed as Homo sapiens) [KE7], the “Powder SHG efficiency I^2ω/I^2ω(sucrose)” value [5] is listed as 3.18 ± 0.67 and the Hydrogel formation [6] is listed as “self-assembled into hydrogels”.
